Target: Escherichia coli RecA (Escherichia coli) (UniProt P0A7G6)
Sequence (P0A7G6 whole entry): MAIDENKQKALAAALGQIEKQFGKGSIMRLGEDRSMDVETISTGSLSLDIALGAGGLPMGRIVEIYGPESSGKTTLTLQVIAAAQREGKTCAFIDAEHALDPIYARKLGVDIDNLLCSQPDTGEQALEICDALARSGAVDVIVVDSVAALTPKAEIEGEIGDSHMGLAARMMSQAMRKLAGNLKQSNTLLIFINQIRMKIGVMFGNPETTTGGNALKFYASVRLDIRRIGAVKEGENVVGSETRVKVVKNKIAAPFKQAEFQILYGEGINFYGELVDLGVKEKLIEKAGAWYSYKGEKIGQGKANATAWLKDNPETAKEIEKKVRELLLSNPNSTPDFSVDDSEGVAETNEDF

B1: Bacillus subtilis DprA (natural protein)
chain: MDQAAVCLTICRINQLLSPSLLLKWWKADPSMSLTSPVLQTVTRDQIKAAALKNEIEQFYPKLPRVLAAYREQGINTIPISSKQYPFWLKSIYDPPAVLFAKGDMTLLSKGRKIGIVGTRNPTAYGKQVVNHLTKEICRKGWVIVSGLASGIDGMSHAASIKAKGRTIGVIAGGFQHIYPRENLQLADHMAKHHILLSEHPPETKPQKWHFPMRNRIISGLSEGVIVVQGKEKSGSLITAYQALEQGREVFAVPGSLFDPYAGGPIKLIQQGAKAIWSAEDIFEELPERNVQYTEPF
- activation of RecAEco (5 uM) dATP hydrolysis on (dT)21 by 0.3 uM DprABsu, against RecAEco alone: 7 to 8 fold
